US20240287161A1

Columns and labels:
[1] = target: SARS-CoV-2 spike receptor-binding domain (RBD, amino acids 322 to 536), histidine-tagged (Example 2) (SARS-CoV-2) (UniProt P0DTC2)
[2] = target: SARS-CoV2 S protein on VSV pseudovirus (SARS-CoV-2) (UniProt P0DTC2)
[3] = target: Authentic CoV2 (SARS-CoV-2 JPN/TY/WK-521)

Substance | EC50 [1] | IC50, pseudovirus neutralization [2] | IC50, authentic virus neutralization [3]
REGN10933 (antibody) | 0.194 µg/mL | 0.0089 µg/mL | 0.0381 µg/mL
REGN10987 (antibody) | 3.3 µg/mL | 0.0416 µg/mL | 0.134 µg/mL
